Source: PMC10397247

What was measured:
[1] = biological target: T1, 4H2907-AA; assay: two-hybrid library CCmax;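 note: natural log of median RNA to DNA barcode read ratio; higher means stronger binding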
T1 chain: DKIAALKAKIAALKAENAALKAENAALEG

[2] = biological target: T2, 4H3162-AA; assay: two-hybrid library CCmax; settings: mean of both orientations;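 note: natural log of median RNA to DNA barcode read ratio; higher means stronger binding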
T2 chain: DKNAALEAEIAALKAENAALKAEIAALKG

[3] = biological target: T3, 4H3718-AA; assay: two-hybrid library CCmax; settings: mean of both orientations;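 note: natural log of median RNA to DNA barcode read ratio; higher means stronger binding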
T3 chain: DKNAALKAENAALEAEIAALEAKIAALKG

[4] = biological target: T4, 4H3588-AA; assay: two-hybrid library CCmax; settings: mean of both orientations;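 note: natural log of median RNA to DNA barcode read ratio; higher means stronger binding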
T4 chain: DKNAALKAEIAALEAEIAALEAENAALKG

[5] = biological target: T5, 4H982-AA; assay: two-hybrid library CCmax; settings: mean of both orientations;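 note: natural log of median RNA to DNA barcode read ratio; higher means stronger binding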
T5 chain: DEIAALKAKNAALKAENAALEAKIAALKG

[6] = biological target: T6, 4H3056-AA; assay: two-hybrid library CCmax; settings: mean of both orientations;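 note: natural log of median RNA to DNA barcode read ratio; higher means stronger binding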
T6 chain: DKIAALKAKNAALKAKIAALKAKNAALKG

[7] = biological target: T7, 4H3378-AA; assay: two-hybrid library CCmax; settings: mean of both orientations
T7 chain: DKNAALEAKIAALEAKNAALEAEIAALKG

[8] = biological target: T8, 4H384-AA; assay: two-hybrid library CCmax; settings: mean of both orientations
T8 chain: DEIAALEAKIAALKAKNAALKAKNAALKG

[9] = biological target: T9, 4H3413-AA; assay: two-hybrid library CCmax; settings: mean of both orientations
T9 chain: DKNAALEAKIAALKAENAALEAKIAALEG

[10] = biological target: T10, 4H697-AA; assay: two-hybrid library CCmax; settings: mean of both orientations
T10 chain: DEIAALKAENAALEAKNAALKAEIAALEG

[11] = biological target: T11, 4H3631-AA; assay: two-hybrid library CCmax; settings: mean of both orientations
T11 chain: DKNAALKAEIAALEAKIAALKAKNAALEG

[12] = biological target: T12, 4H3606-AA; assay: two-hybrid library CCmax; settings: mean of both orientations
T12 chain: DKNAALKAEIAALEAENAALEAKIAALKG

[13] = biological target: T13, 4H340-AA; assay: two-hybrid library CCmax; settings: mean of both orientations
T13 chain: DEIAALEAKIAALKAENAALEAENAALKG

[14] = biological target: T14, 4H3865-AA; assay: two-hybrid library CCmax; settings: mean of both orientations
T14 chain: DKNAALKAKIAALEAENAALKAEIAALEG

[15] = biological target: T15, 4H32-AA; assay: two-hybrid library CCmax; settings: mean of both orientations
T15 chain: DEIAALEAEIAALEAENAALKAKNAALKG

[16] = biological target: T16, 4H3133-AA; assay: two-hybrid library CCmax; settings: mean of both orientations
T16 chain: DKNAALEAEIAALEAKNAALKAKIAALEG

[17] = biological target: T17, 4H3697-AA; assay: two-hybrid library CCmax; settings: mean of both orientations
T17 chain: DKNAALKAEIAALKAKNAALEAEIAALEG

[18] = biological target: T18, 4H963-AA; assay: two-hybrid library CCmax
T18 chain: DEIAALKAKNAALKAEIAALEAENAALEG

[19] = biological target: T19, 4H56-bH; assay: two-hybrid library CCNG1
T19 chain: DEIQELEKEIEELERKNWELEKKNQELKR

[20] = biological target: T20, 4H796-bH; assay: two-hybrid library CCNG1
T20 chain: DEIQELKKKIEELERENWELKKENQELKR

[21] = biological target: T21, 4H349-bH; assay: two-hybrid library CCNG1
T21 chain: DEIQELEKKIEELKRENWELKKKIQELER

[22] = biological target: T22, 4H932-bH; assay: two-hybrid library CCNG1
T22 chain: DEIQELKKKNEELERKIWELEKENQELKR

[23] = biological target: T23, 4H949-bH; assay: two-hybrid library CCNG1
T23 chain: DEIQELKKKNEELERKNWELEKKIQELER

[24] = biological target: T24, 4H730-bH; assay: two-hybrid library CCNG1
T24 chain: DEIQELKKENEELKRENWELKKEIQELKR

[25] = biological target: T25, 4H908-bN; assay: two-hybrid library CCNG1
T25 chain: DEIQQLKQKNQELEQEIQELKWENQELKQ

[26] = biological target: T26, 4H72-bN; assay: two-hybrid library CCNG1
T26 chain: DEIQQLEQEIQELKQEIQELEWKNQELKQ

[27] = biological target: T27, 4H883-bN; assay: two-hybrid library CCNG1
T27 chain: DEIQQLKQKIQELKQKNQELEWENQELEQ

[28] = biological target: T28, 4H687-bN; assay: two-hybrid library CCNG1
T28 chain: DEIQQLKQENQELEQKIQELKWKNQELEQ

[29] = biological target: T29, 4H3855-bN; assay: two-hybrid library CCNG1
T29 chain: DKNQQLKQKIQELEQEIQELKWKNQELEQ

[30] = biological target: T30, 4H754-bN; assay: two-hybrid library CCNG1
T30 chain: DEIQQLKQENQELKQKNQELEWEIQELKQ

[31] = biological target: T31, 4H967-bN; assay: two-hybrid library CCNG1
T31 chain: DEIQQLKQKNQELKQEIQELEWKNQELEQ

[32] = biological target: T32, 4H568-bN; assay: two-hybrid library CCNG1
T32 chain: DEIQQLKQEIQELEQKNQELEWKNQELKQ

[33] = biological target: T33, 4H797-bN; assay: two-hybrid library CCNG1
T33 chain: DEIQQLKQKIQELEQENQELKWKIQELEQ

[34] = biological target: T34, 4H607-bN; assay: two-hybrid library CCNG1
T34 chain: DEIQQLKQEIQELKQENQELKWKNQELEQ

[35] = biological target: T35, 4H454-bN; assay: two-hybrid library CCNG1
T35 chain: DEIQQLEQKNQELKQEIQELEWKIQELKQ

[36] = biological target: T36, 4H4001-bN; assay: two-hybrid library CCNG1
T36 chain: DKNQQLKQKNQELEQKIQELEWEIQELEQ

[37] = biological target: T37, 4H918-bN; assay: two-hybrid library CCNG1
T37 chain: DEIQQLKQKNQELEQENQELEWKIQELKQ

[38] = biological target: T38, 4H953-bN; assay: two-hybrid library CCNG1
T38 chain: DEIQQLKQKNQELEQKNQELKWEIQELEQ

[39] = biological target: T39, 4H717-bN; assay: two-hybrid library CCNG1
T39 chain: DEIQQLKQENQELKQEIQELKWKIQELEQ

[40] = biological target: T40, 4H932-bN; assay: two-hybrid library CCNG1
T40 chain: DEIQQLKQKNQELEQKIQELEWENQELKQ

[41] = biological target: T41, 4H730-bN; assay: two-hybrid library CCNG1
T41 chain: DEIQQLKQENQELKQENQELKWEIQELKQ

[42] = biological target: T42, 4H949-bN; assay: two-hybrid library CCNG1
T42 chain: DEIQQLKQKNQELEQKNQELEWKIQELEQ

[43] = biological target: T43, 4H796-bN; assay: two-hybrid library CCNG1
T43 chain: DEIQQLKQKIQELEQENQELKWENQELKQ

[44] = biological target: T44, 4H56-bN; assay: two-hybrid library CCNG1
T44 chain: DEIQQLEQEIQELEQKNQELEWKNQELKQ

[45] = biological target: T45, 4H349-bN; assay: two-hybrid library CCNG1
T45 chain: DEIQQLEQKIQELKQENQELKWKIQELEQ

DKIAALKAKIAALKAENAALKAENAALEG [4H2907-AA] showed an interaction score [1] of -0.959, an interaction score [2] of -1.39 and an interaction score [3] of -1.65. The interaction score [4] was 1.57, the interaction score [5] was -1.58 and the interaction score [6] was -2.08. It also gave an interaction score [7] of -1.66, an interaction score [8] of 1.15 and an interaction score [9] of -2.21. The interaction score [10] was -1.18, the interaction score [11] was -1.81 and the interaction score [12] was 0.48. For the same binder, the interaction score [13] was 1.31, the interaction score [14] was -1.75 and the interaction score [15] was 2.38. It also gave an interaction score [16] of -1.24 and an interaction score [17] of -1.97.

DEIAALKAKNAALKAEIAALEAENAALEG [4H963-AA] showed an interaction score [18] of -2.11.

For DEIQELEKKIEELKRENWELKKKIQELER [4H349-bH], the interaction score [19] was 0.452, the interaction score [20] was 0.227 and the interaction score [21] was 0.275. For the same binder, the interaction score [22] was 0.654, the interaction score [23] was -0.023 and the interaction score [24] was -0.225.

DKNQQLKQKIQELEQEIQELKWKNQELEQ [4H3855-bN] was tested, and the interaction score [25] was -0.268, the interaction score [26] was -0.0369 and the interaction score [27] was -0.0328. It also gave an interaction score [28] of -1.97, an interaction score [29] of 0.124 and an interaction score [30] of -0.585. It also gave an interaction score [31] of -0.415, an interaction score [32] of 0.0333 and an interaction score [33] of -0.544. The interaction score [34] was -0.914, the interaction score [35] was -0.525 and the interaction score [36] was 0.118. For the same binder, the interaction score [37] was -1.48, the interaction score [38] was -0.653 and the interaction score [39] was -0.464.

Binder DEIQQLEQKIQELKQENQELKWKIQELEQ [4H349-bN] has an interaction score [40] of -0.258, an interaction score [41] of -1.05 and an interaction score [42] of -0.958. The interaction score [43] was -0.249, the interaction score [44] was -0.3 and the interaction score [45] was -1.89.
